Test results reported in patent CN116406375A (UNIV SHANGHAI TECHNOLOGY, dated 2023).

B1: S-B8 (antibody, V domains shown)
VH: QVQLVQSGGGLIQPGGSLRLSCAASGFTVSLSHMNWVRQAPGKGLEWVSITYGDGNSDYADSVKGRFTISRDNSKNTLYLQMNSLRAEDTAVYYCAREYYYGMDVWGQGTTVTVSS
VL: not shown
notes: also called S-B8二聚体
B2: S-D4 (antibody, V domains shown)
VH: QVQLQESGGGVVQPGRSLRLSCEVSGFTFSDYGMHWVRQAPGKGLEWVAVIWSEGSTEYYADSVKGRFTISRDNSKDTLYLQMNSLRAEDTAVYYCARPGYPTSTDRSPAAAGARQYYYYGMDVWGQGTTVTVSS
VL: NFMLTQPHSVSESPGKTVTISCTRSGGSGAANYVQWYQQRPGSSPTTLIYEDSRRPPGVPDRFSGSVDTSSNSASLTISGLQTEDEADYYCQSYDSSNHVVFGGGTKLTVLG
notes: also called S-D4二聚体; S-D4 IgG4
B3: S-E6 (antibody, V domains shown)
VH: QVTLRESGPGLVKPSETLSLTCAVSGGSLSSVNYYWSWIRQHPGKGLEWIGYIYYSGSTNYNPSLKSRVTMSLDTSKNQFSLKLSSVTAADTAVYYCATPGAIMGALHIWGQGTLVTVSS
VL: QAVLTQPSSASSTPGQRVIISCSGSSSNIGSNTVSWYQQVPGAAPKLLIYFDYRRPSGVPDRFSGTRSGTSASLGISGLQSEDEADYYCAAWDDSLSAWVFGRGTKLTVLG
notes: also called S-E6二聚体; 二聚体S-E6
B4: S-E6三聚体 (other)
heavy (part 1 of 2): B3 VH
heavy (part 2 of 2): GGGGSGGGGSGGGGSPGSGYIPEAPRDGQAYVRKDGEWVLLSTFLGHHHHHH
light: B3 VL
notes: also called 三聚体S-E6
B5: S-B8三聚体 (other)
heavy (part 1 of 2): B1 VH
heavy (part 2 of 2): B4 heavy (part 2 of 2)
light: not shown

Experiments:
[1] = molecular target: SARS-CoV-2 B.1.617.2假病毒的刺突Δ19 (SARS-CoV-2); assay: cell-based or functional assay
[2] = molecular target: SARS-CoV-2 K417N+E484K+N501Y+D614G假病毒的刺突Δ19 (SARS-CoV-2, UniProt P0DTC2 14-1254); assay: cell-based or functional assay
[3] = molecular target: SARS-CoV-2刺突N501Y+D614G假病毒的刺突Δ19 (SARS-CoV-2, UniProt P0DTC2 14-1254); assay: cell-based or functional assay
[4] = molecular target: 真SARS-CoV-2英国变异株(B.1.1.7)病毒的刺突 (SARS-CoV-2); assay: cell-based or functional assay
野生型SARS-CoV-2假病毒的刺突Δ19 = 野生型SARS-CoV-2假病毒的刺突Δ19 (SARS-CoV-2, UniProt P0DTC2 14-1254); assay: cell-based or functional assay
SARS-CoV-2 S-RBD = molecular target: T1, SARS-CoV-2 S-RBD (SARS-CoV-2, UniProt P0DTC2 319-541); assay: BLI, biotinylated S-RBD on SA sensor, 1:1 Langmuir model
T1 construct: also called WT S-RBD; 野生型(WT)S-RBD

K417N+E484K+N501Y RBD = molecular target: T2, K417N+E484K+N501Y RBD (SARS-CoV-2, UniProt P0DTC2 319-541); assay: BLI, biotinylated B.1.351 S-RBD on SA sensor, 1:1 Langmuir model
T2 construct: also called B.1.351S-RBD; B.1.351的刺突RBD

Row | Binder | NT50(B.1.617.2) [1] | NT50(B.1.351) [2] | NT50, 假病毒中和 (N501Y+D614G PSV) [3] | NT50, 真病毒中和 (B.1.1.7) [4] | NT50, 假病毒中和 (野生型PSV) (野生型SARS-CoV-2假病毒的刺突Δ19) | Kd (SARS-CoV-2 S-RBD) | Kd (K417N+E484K+N501Y RBD)
1 | B1 | 0.37 nM | 1.2 nM | 0.53 nM |  |  |  | 
2 | B2 | 0.24 nM | 0.66 nM | 0.042 nM | 1.88 nM | 0.48 nM |  | 
3 | B3 | 0.065 nM | 0.32 nM | 0.021 nM | 1.15 nM | 0.025 nM |  | 
4 | B4 | 0.007 nM |  |  |  |  | 0.0101 nM | 0.58 nM
5 | B5 | 0.15 nM | 0.35 nM |  |  |  |  | 
